Here are results for 2 molecules from paper PMC9250508 (2022).

A word on the Kd: it is the concentration at which binding is half-saturated. Higher therefore signals lower affinity. By koff is commonly meant the rate constant with which the complex falls apart. A low value points to slow dissociation.

This assay deals with D614G RBD. Nature of the assay: BLI. Background: Biolayer interferometry detects binding as a change in optical thickness at a sensor tip.

B1: AZD1061 Fab (Fab, V domains shown)
VH: EVQLVESGGGLVKPGGSLRLSCAASGFTFRDVWMSWVRQAPGKGLEWVGRIKSKIDGGTTDYAAPVKGRFTISRDDSKNTLYLQMNSLKTEDTAVYYCTTAGSYYYDTVGPGLPEGKFDYWGQGTLVTVSS
VL: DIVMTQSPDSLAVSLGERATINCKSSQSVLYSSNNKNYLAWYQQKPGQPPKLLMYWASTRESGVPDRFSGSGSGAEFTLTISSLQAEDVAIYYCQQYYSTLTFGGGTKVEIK
For the molecule B1, the Kd was found to be 14.5 nM and the koff was 0.00217 s⁻¹.

B2: AZD8895 Fab (Fab, V domains shown)
VH: QMQLVQSGPEVKKPGTSVKVSCKASGFTFMSSAVQWVRQARGQRLEWIGWIVIGSGNTNYAQKFQERVTITRDMSTSTAYMELSSLRSEDTAVYYCAAPYCSSISCNDGFDIWGQGTMVTVSS
VL: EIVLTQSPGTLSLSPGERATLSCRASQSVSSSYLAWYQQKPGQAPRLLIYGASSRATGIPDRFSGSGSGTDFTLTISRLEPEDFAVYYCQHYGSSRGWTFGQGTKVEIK
Molecule B2 yielded a Kd of 9.79 nM and a koff of 0.00603 s⁻¹.
